Source: patent US6730480B1, “Sphingosine kinase enzyme” (Johnson & Johnson Pharmaceutical Research and Development …, priority 1999, dated 2004)
Numbering of substitutions follows the chain as printed.

Key:
[1] = test system: sphingosine kinase activity in HEK293 cells; experiment: Transient expression of hSK and TNFα stimulation of sphingosine kinase activity in HEK293 cells; format: cell-based, human
Protocol: (§1) Sphingosine kinase activity was routinely determined using D-erythro-sphingosine and [γ^32P]ATP as substrates, essentially as previously described (Olivera et al., 1998) with some modifications. Briefly, assays were performed by incubating samples at 37° C. for 30 min with sphingosine (100 μM stock dissolved in 5% Triton X-100) and [γ-^32P]ATP (1 mM; 10 μCi/ml) in assay buffer containing 100 mM Tris/HCl (pH 7.4), 10 mM MgCl2 10% (v/v) glycerol, 1 mM dithiothreitol, 1 mM EGTA, 1 mM Na3VO4, 15 mM NaF, 0.5 mM 4-deoxypyridoxine in a total volume of 100 μl. Reactions were terminated and sphingosine-1-phosphate extracted by the addition of 700 μl of chloroform/methanol/HCl (100:200:1. v/v), followed by vigorous mixing, addition of 200 μp of chloroform and 200 μl of 2 M KCl, and phase separation by centrifugation. The labeled S1P in the organic phase was isolated by TLC on Silica Gel 60 with 1-butanol/ethanol/acetic acid/water (8:2:1:2, v/v) and quantitated by phosphorimager (Molecular Dynamics. Sunnyvale, Calif.). One unit (U) of activity is defined as 1pmol of S1P formed per minute.
For mammalian cell expression the hSK cDNA was FLAG epitope tagged at the 3′-end by PFU polymerase PCR with oligonucleotide primers T7 and 5′-[…]-3′ [SEQ ID NO:5]. […] The orientation was determined by restriction analysis and sequencing verified the integrity of the hSK-FLAG cDNA sequence. […]

[2] = test system: sphingosine kinase activity in HUVEC; experiment: TNFα stimulation of sphingosine kinase activity in HUVEC extracts; format: cell-based, human; details: TNFα treated HUVEC (untreated HUVEC 78)
Protocol: as §1
Human umbilical vein endothelial cells (HUVEC) were isolated as previously described (Wall et al., 1978) and cultured on gelatin-coated culture flasks in medium M199 with Earle's salts supplemented with 20% fetal calf serum, 25 μg/ml endothelial growth supplement (Collaborative Research) and 25 μg/ml heparin. […]

[3] = substrate: CCCCCCCCCCCCC/C=C/[C@@H](O)[C@@H](N)CO; experiment: Sphingosine kinase enzyme assay with native SK purified from human placenta; format: biochemical; details: other: Native SK, 37.0 °C
Protocol: The substrates examined were added to a final concentration of 100 μM in 0.25% (w/v) Triton X-100, and assayed under the standard assay conditions outlined earlier.
Substrate kinetics were determined by supplying substrates over the concentration range of 0.5 to 200 μM for sphingosine analogues, and 5 to 1000 μM for ATP. Inhibition kinetics were determined by the use of inhibitors over a concentration range of 2 to 50 μM (Table 5). In both cases the data were analysed by non-linear regression.
The effect of metal ions on the activity of the native and recombinant sphingosine kinases were determined by assaying the activity under standard conditions in the presence of various metal ions or EDTA at 10 mM.

[4] = format: physicochemical, human; details: pH range 4 to 11, 50 mM buffers, 37° C.
Protocol: The effect of pH on the activity of the isolated sphingosine kinases was determined over the pH range 4.0 to 11.0 in 50 mM buffers (sodium acetate, pH 4.0-5.0; Mes, pH 6.0-7.0; Hepes, pH 7.0-8.2; Tris/HCl, pH 8.2-10.0: Caps, pH 10.0-11.0) at 37° C. pH stability was determined by assaying the residual activity after pre-incubation of the enzymes in the same buffers for 5 h at 4° C. Similarly, thermal stabilities were determined by assaying the residual activity after pre-incubation of the enzymes at various temperatures (4-80° C.) for 30 min at pH 7.4 (50 mM Tris/HCl containing 10% glycerol, 0.5 M NaCl and 0.05% Triton X-100). Substrate kinetics were analysed using Michaelis-Menten kinetics with a weighted non-linear regression program (Easterby, 1996). Since sphingosine and its analogues were added to the enzyme assays in mixed micelles with Triton X-100, where they exibit surface dilution kinetics (Buehrer and Bell. 1992), all K, and KC values obtained for these molecules were expressed as mol % of Triton X-100, rather than as bulk solution concentrations. […]
Thermal stabilities of the native and recombinant sphingosine kinases were determined by assaying the residual activity remaining after preincubation of the enzymes at various temperatures (4 to 80° C.) for 30 min at pH 7.4 (50 mM Tris/HCl containing 10% glycerol, 0.5M NaCl and 0.05% Triton X-100). […]

[5] = substrate: CCCCCCCCCCCCC/C=C/[C@@H](O)[C@@H](N)CO; experiment: Sphingosine kinase enzyme assay with recombinant human SK expressed in E. coli; format: biochemical; details: other: Recombinant SK
[6] = sphingosine supplied as a sphingosine-BSA complex
[7] = substrate kinetics, bulk solution concentration

TNFα
Increase in sphingosine kinase activity after TNFα treatment ([1]; hSK-transfected HEK293 cells, TNFα 1 ng/ml, 10 min): approximately 2 fold | Total sphingosine kinase activity in cell extract [2]: 136 U/mg proteins

B1: native sphingosine kinase (human placenta SK1) (Homo sapiens) (protein)
chain: MDPAGGPRGVLPRPCRVLVLLNPRGGKGKALQLFRSHVQPLLAEAEISFTLMLTERRNHARELVRSEELGRWDALVVMSGDGLMHEVVNGLMERPDWETAIQKPLCSLPAGSGNALAASLNHYAGYEQVTNEDLLTNCTLLLCRRLLSPMNLLSLHTASGLRLFSVLSLAWGFIADVDLESEKYRRLGEMRFTLGTFLRLAALRTYRGRLAYLPVGRVGSKTPASPVVVQQGPVDAHLVPLEEPVPSHWTVVPDEDFVLVLALLHSHLGSEMFAAPMGRCAAGVMHLFYVRAGVSRAMLLRLFLAMEKGRHMEYECPYLVYVPVVAFRLEPKDGKGVFAVDGELMVSEAVQGQVHPNYFWMVSGCVEPPPSWKPQQMPPPEEPL
notes: from tissue; host or cells: human placenta
kcat [3, 6]: 28 s⁻¹ | Km [3, 7]: 14 ± 2 µM | kcat [3, 7]: 50 s⁻¹ | kcat/Km [3, 7]: 3.6e+06 M⁻¹ s⁻¹

B2: native sphingosine kinase: sphingosine kinase SK1 purified to homogeneity from human placenta (protein, UniProt Q9NYA1 1-384, looked up)
Sphingosine kinase 1: B1 chain
pH of maximum activity [4]: 7.4

B3: hSK: human sphingosine kinase encoded by the cloned cDNA, SEQ ID NO:2 (protein)
chain: B1 chain with V337M
Increase in sphingosine kinase activity on transient expression ([1]; HEK293 cells, pcDNA3-hSK, versus untransfected or empty vector): 3200 fold

B4: recombinant human sphingosine kinase (Homo sapiens) (protein)
chain: B1 chain
notes: The full length SPHK cDNA cloned into pGEX4T2 was transformed into E. coli BL21; GST (N, cleaved yes); made in house; host or cells: E. coli BL21
kcat [5, 6]: 39 s⁻¹ | Km [5, 7]: 12 ± 3 µM | kcat [5, 7]: 85 s⁻¹ | kcat/Km [5, 7]: 7.1e+06 M⁻¹ s⁻¹

B5: recombinant sphingosine kinase: hSK expressed as GST fusion in E. coli BL21, thrombin-cleaved and purified (protein)
chain: B1 chain with V337M
pH of maximum activity [4]: 7.4
